Test system: NCI-H460 tumor-bearing mice (lung cancer)
Assay: Biodistribution: lutetium accumulation in tumor, plasma and healthy tissues by ICP-MS
Assay type: in vivo
Settings: 24 h; for Kidney uptake, % ID/g 24 h / Liver uptake, % ID/g 24 h / Plasma, % ID/g 24 h / Tumor uptake, % ID/g, 24 h: second table
Experimental: Lutetium accumulation was measured in tumor, plasma and healthy tissues of NCI-H460 tumor-bearing mice (lung cancer). NCJ-H460 tumor bearing mice were dosed with 0.5 mg/kg of lutetium conjugates. At the time points indicated, mice were sacrificed and tumor, liver, kidneys and plasma were taken. All tissues were analyzed for lutetium content by ICP-MS, and lutetium uptake in % ID/g determined by the following equation: […]
Biodistribution at 24 h and Tumor/Kidney ratio (T/K), Tumor/Liver ratio (T/L), Tumor/Plasma ratio (T/P) are give in the table below.

SMILES: CCNC(=O)c1nnc(-c2cc(C(C)C)c(O)cc2O)n1-c1ccc(CN2CCN(C(=O)CCOCCOCCOCCOCCNC(=O)CN3CCN4CCN5CCN6CC(=O)O[C]6(C3)[Lu]([O]C(=O)C4)[O]C(=O)C5)CC2)cc1 (stereo not drawn) [CMP1]
- T/K (Tumor/Kidney ratio): 1.28
- T/L (Tumor/Liver ratio): 1.92
- T/P (Tumor/Plasma ratio): 7.68
- Kidney uptake, % ID/g 24 h: 0.91 % ID/g
- Liver uptake, % ID/g 24 h: 0.607 % ID/g
- Plasma, % ID/g 24 h: 0.152 % ID/g
- Tumor uptake, % ID/g, 24 h: 1.167 % ID/g

SMILES: CCNC(=O)c1nnc(-c2cc(C(C)C)c(O)cc2O)n1-c1ccc(OC2CCN(C(=O)CCOCCOCCOCCOCCNC(=O)CC[C@@H](C(=O)O)N(CC)CCN3CCN4CCN(C)CC(=O)[O][Lu]([O]C(=O)C4)[O]C(=O)C3)CC2)cc1 [CMP2]
- T/K (Tumor/Kidney ratio): 2.12
- T/L (Tumor/Liver ratio): 1.98
- T/P (Tumor/Plasma ratio): 2.51
- Kidney uptake, % ID/g 24 h: 0.438 % ID/g
- Liver uptake, % ID/g 24 h: 0.469 % ID/g
- Plasma, % ID/g 24 h: 0.369 % ID/g
- Tumor uptake, % ID/g, 24 h: 0.927 % ID/g

SMILES: CCNC(=O)c1nnc(-c2cc(C(C)C)c(O)cc2O)n1-c1ccc(CC2CCN(C(=O)CCOCCOCCOCCOCCOCCOCCOCCOCCOCCOCCOCCOCCNC(=O)[C@H](CCCCNC(=O)CCCc3ccc(I)cc3)NC(=O)CN3CCN4CCN5CCN(CC3)CC(=O)[O][Lu]([O]C(=O)C4)[O]C(=O)C5)CC2)cc1 [CMP3]
- T/K (Tumor/Kidney ratio): 3.38
- T/L (Tumor/Liver ratio): 2.39
- T/P (Tumor/Plasma ratio): 0.84
- Kidney uptake, % ID/g 24 h: 5.13 % ID/g
- Liver uptake, % ID/g 24 h: 7.26 % ID/g
- Plasma, % ID/g 24 h: 20.57 % ID/g
- Tumor uptake, % ID/g, 24 h: 17.36 % ID/g

SMILES: CCNC(=O)c1nnc(-c2cc(C(C)C)c(O)cc2O)n1-c1ccc(CC2CCN(C(=O)CCOCCOCCOCCOCCNC(=O)[C@H](CCCCNC(=O)CCCc3ccc(I)cc3)NC(=O)CN(CC)CCN3CCN4CCN(C)CC(=O)[O][Lu]([O]C(=O)C4)[O]C(=O)C3)CC2)cc1 [CMP4]
- T/K (Tumor/Kidney ratio): 2.53
- T/L (Tumor/Liver ratio): 3.55
- T/P (Tumor/Plasma ratio): 0.87
- Kidney uptake, % ID/g 24 h: 3.24 % ID/g
- Liver uptake, % ID/g 24 h: 2.31 % ID/g
- Plasma, % ID/g 24 h: 9.48 % ID/g
- Tumor uptake, % ID/g, 24 h: 8.21 % ID/g

SMILES: CCNC(=O)c1nnc(-c2cc(C(C)C)c(O)cc2O)n1-c1ccc(OC2CCN(C(=O)CCOCCOCCOCCOCCOCCOCCOCCOCCOCCOCCOCCOCCNC(=O)[C@H](CCCCNC(=O)CCCc3ccc(I)cc3)NC(=O)CN3CCN4CCN5CCN(CC3)CC(=O)[O][Lu]([O]C(=O)C4)[O]C(=O)C5)CC2)cc1 [CMP5]
- T/K (Tumor/Kidney ratio): 3.05
- T/L (Tumor/Liver ratio): 3.17
- T/P (Tumor/Plasma ratio): 1.42
- Kidney uptake, % ID/g 24 h: 3.95 % ID/g
- Liver uptake, % ID/g 24 h: 3.80 % ID/g
- Plasma, % ID/g 24 h: 8.48 % ID/g
- Tumor uptake, % ID/g, 24 h: 12.05 % ID/g

SMILES: CCNC(=O)c1nnc(-c2cc(C(C)C)c(O)cc2O)n1-c1ccc(CC2CCN(C(=O)CCOCC(COCCC(=O)N3CCC(Cc4ccc(-n5c(C(=O)NCC)nnc5-c5cc(C(C)C)c(O)cc5O)cc4)CC3)NC(=O)CC[C@H](C(=O)O)N3CCN4CCN5CCN(CC3)CC(=O)[O][Lu]([O]C(=O)C5)[O]C(=O)C4)CC2)cc1 [CMP8]
- T/K (Tumor/Kidney ratio): 2.01
- T/L (Tumor/Liver ratio): 1.67
- T/P (Tumor/Plasma ratio): 4.01
- Kidney uptake, % ID/g 24 h: 2.91 % ID/g
- Liver uptake, % ID/g 24 h: 3.50 % ID/g
- Plasma, % ID/g 24 h: 1.46 % ID/g
- Tumor uptake, % ID/g, 24 h: 5.86 % ID/g

SMILES: CCNC(=O)c1nnc(-c2cc(C(C)C)c(O)cc2O)n1-c1ccc(CC2CCN(C(=O)CCC(=O)N[C@@H](CCCCNC(=O)CN3CCN4CCN5CCN(CC3)CC(=O)[O][Lu]([O]C(=O)C4)[O]C(=O)C5)C(=O)N3CCC(Cc4ccc(-n5c(C(=O)NCC)nnc5-c5cc(C(C)C)c(O)cc5O)cc4)CC3)CC2)cc1 [CMP24]
- T/K (Tumor/Kidney ratio): 2.58
- T/L (Tumor/Liver ratio): 1.07
- T/P (Tumor/Plasma ratio): 0.89
- Kidney uptake, % ID/g 24 h: 4.81 % ID/g
- Liver uptake, % ID/g 24 h: 11.53 % ID/g
- Plasma, % ID/g 24 h: 13.96 % ID/g
- Tumor uptake, % ID/g, 24 h: 12.39 % ID/g

SMILES: CCNC(=O)c1nnc(-c2cc(C(C)C)c(O)cc2O)n1-c1ccc(CC2CCN(C(=O)C[C@H](NC(=O)CN3CCN4CCN5CCN(CC3)CC(=O)[O][Lu]([O]C(=O)C4)[O]C(=O)C5)C(=O)N[C@H](C)C(=O)N3CCC(Cc4ccc(-n5c(C(=O)NCC)nnc5-c5cc(C(C)C)c(O)cc5O)cc4)CC3)CC2)cc1 [CMP27]
- T/K (Tumor/Kidney ratio): 1.13
- T/L (Tumor/Liver ratio): 0.50
- T/P (Tumor/Plasma ratio): 1.53
- Kidney uptake, % ID/g 24 h: 6.66 % ID/g
- Liver uptake, % ID/g 24 h: 14.98 % ID/g
- Plasma, % ID/g 24 h: 4.89 % ID/g
- Tumor uptake, % ID/g, 24 h: 7.50 % ID/g

SMILES: CCNC(=O)c1nnc(-c2cc(C(C)C)c(O)cc2O)n1-c1ccc(CC2CCN(C(=O)C[C@H](NC(=O)CC[C@H](C(=O)O)N3CCN4CCN5CCN(CC3)CC(=O)[O][Lu]([O]C(=O)C5)[O]C(=O)C4)C(=O)N[C@H](C)C(=O)N3CCC(Cc4ccc(-n5c(C(=O)NCC)nnc5-c5cc(C(C)C)c(O)cc5O)cc4)CC3)CC2)cc1 [CMP28]
- T/K (Tumor/Kidney ratio): 0.90
- T/L (Tumor/Liver ratio): 0.79
- T/P (Tumor/Plasma ratio): 1.13
- Kidney uptake, % ID/g 24 h: 8.90 % ID/g
- Liver uptake, % ID/g 24 h: 10.10 % ID/g
- Plasma, % ID/g 24 h: 7.11 % ID/g
- Tumor uptake, % ID/g, 24 h: 8.01 % ID/g

SMILES: CCNC(=O)c1nnc(-c2cc(C(C)C)c(O)cc2O)n1-c1ccc(C2CN(C(=O)CCOCCOCCOCCOCCNC(=O)CN3CCN4CCN5CCN(CC3)CC(=O)[O][Lu]([O]C(=O)C4)[O]C(=O)C5)C2)cc1 [CMP29]
- T/K (Tumor/Kidney ratio): 2.19
- T/L (Tumor/Liver ratio): 2.23
- T/P (Tumor/Plasma ratio): 4.08
- Kidney uptake, % ID/g 24 h: 1.12 % ID/g
- Liver uptake, % ID/g 24 h: 1.10 % ID/g
- Plasma, % ID/g 24 h: 0.60 % ID/g
- Tumor uptake, % ID/g, 24 h: 2.45 % ID/g

SMILES: CCNC(=O)c1nnc(-c2cc(C(C)C)c(O)cc2O)n1-c1ccc(C2CCN(C(=O)CCOCCOCCOCCOCCNC(=O)CN3CCN4CCN5CCN(CC3)CC(=O)[O][Lu]([O]C(=O)C4)[O]C(=O)C5)CC2)cc1 [CMP30]
- T/K (Tumor/Kidney ratio): 2.57
- T/L (Tumor/Liver ratio): 0.62
- T/P (Tumor/Plasma ratio): 2.75
- Kidney uptake, % ID/g 24 h: 0.76 % ID/g
- Liver uptake, % ID/g 24 h: 3.16 % ID/g
- Plasma, % ID/g 24 h: 0.71 % ID/g
- Tumor uptake, % ID/g, 24 h: 1.95 % ID/g

SMILES: CCNC(=O)c1nnc(-c2cc(C(C)C)c(O)cc2O)n1-c1ccc(CC2CCN(C(=O)CCOCCOCCOCCOCCNC(=O)CN3CCN4CCN5CCN(CC3)CC(=O)[O][Lu]([O]C(=O)C4)[O]C(=O)C5)CC2)cc1 [CMP31]
- T/K (Tumor/Kidney ratio): 5.00
- T/L (Tumor/Liver ratio): 2.30
- T/P (Tumor/Plasma ratio): 5.19
- Kidney uptake, % ID/g 24 h: 0.84 % ID/g
- Liver uptake, % ID/g 24 h: 1.83 % ID/g
- Plasma, % ID/g 24 h: 0.81 % ID/g
- Tumor uptake, % ID/g, 24 h: 4.20 % ID/g

SMILES: CCNC(=O)c1nnc(-c2cc(C(C)C)c(O)cc2O)n1-c1ccc(C2CN(C(=O)CCOCCOCCOCCOCCOCCOCCOCCOCCOCCOCCOCCOCCNC(=O)CN3CCN4CCN5CCN(CC3)CC(=O)[O][Lu]([O]C(=O)C4)[O]C(=O)C5)C2)cc1 [CMP32]
- T/K (Tumor/Kidney ratio): 2.15
- T/L (Tumor/Liver ratio): 5.26
- T/P (Tumor/Plasma ratio): 6.81
- Kidney uptake, % ID/g 24 h: 1.17 % ID/g
- Liver uptake, % ID/g 24 h: 0.48 % ID/g
- Plasma, % ID/g 24 h: 0.37 % ID/g
- Tumor uptake, % ID/g, 24 h: 2.52 % ID/g

SMILES: CCNC(=O)c1nnc(-c2cc(C(C)C)c(O)cc2O)n1-c1ccc(C2CCN(C(=O)CCOCCOCCOCCOCCOCCOCCOCCOCCOCCOCCOCCOCCNC(=O)CN3CCN4CCN5CCN(CC3)CC(=O)[O][Lu]([O]C(=O)C4)[O]C(=O)C5)CC2)cc1 [CMP33]
- T/K (Tumor/Kidney ratio): 2.05
- T/L (Tumor/Liver ratio): 3.64
- T/P (Tumor/Plasma ratio): 5.11
- Kidney uptake, % ID/g 24 h: 1.62 % ID/g
- Liver uptake, % ID/g 24 h: 0.91 % ID/g
- Plasma, % ID/g 24 h: 0.65 % ID/g
- Tumor uptake, % ID/g, 24 h: 3.32 % ID/g

SMILES: CCNC(=O)c1nnc(-c2cc(C(C)C)c(O)cc2O)n1-c1ccc(CC2CCN(C(=O)CCOCCOCCOCCOCCOCCOCCOCCOCCOCCOCCOCCOCCNC(=O)CN3CCN4CCN5CCN(CC3)CC(=O)[O][Lu]([O]C(=O)C4)[O]C(=O)C5)CC2)cc1 [CMP34]
- T/K (Tumor/Kidney ratio): 3.96
- T/L (Tumor/Liver ratio): 3.06
- T/P (Tumor/Plasma ratio): 5.54
- Kidney uptake, % ID/g 24 h: 1.12 % ID/g
- Liver uptake, % ID/g 24 h: 1.45 % ID/g
- Plasma, % ID/g 24 h: 0.80 % ID/g
- Tumor uptake, % ID/g, 24 h: 4.43 % ID/g
